Assay results taken from article PMC9540345.

Target: FLAG-HA epitope-tagged H3.1 (UniProt P68431)
Test: proximity ligation

Substance: DAXX (death domain-associated protein 6) (from UniProt Q9UER7 1-740) (natural protein)
- fold enrichment of PLA foci over empty vector control cells: 1.9 fold
